Our source for the EC50 and Relative binding activity values is EP4772193A1 (Teijin Pharma Limited, dated 2026).

The target in experiment [1] is T1, recombinant human soluble gpNMB (recombinant human gpNMB-FLAG-His) (human, UniProt Q14956 23-498).
T1 sequence: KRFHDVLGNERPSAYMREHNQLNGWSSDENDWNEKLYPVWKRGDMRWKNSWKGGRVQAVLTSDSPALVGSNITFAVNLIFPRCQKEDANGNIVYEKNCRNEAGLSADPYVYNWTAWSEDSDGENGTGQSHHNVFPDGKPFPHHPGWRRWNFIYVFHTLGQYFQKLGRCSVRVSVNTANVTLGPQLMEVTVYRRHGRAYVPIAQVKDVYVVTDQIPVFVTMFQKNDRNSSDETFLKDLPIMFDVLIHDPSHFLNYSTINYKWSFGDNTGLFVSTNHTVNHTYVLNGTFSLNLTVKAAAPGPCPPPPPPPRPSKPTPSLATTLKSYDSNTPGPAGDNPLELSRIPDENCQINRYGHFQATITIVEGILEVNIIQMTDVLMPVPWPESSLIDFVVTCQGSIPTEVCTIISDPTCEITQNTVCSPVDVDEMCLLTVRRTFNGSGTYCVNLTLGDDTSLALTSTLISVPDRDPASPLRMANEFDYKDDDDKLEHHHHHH
In words: antigen ELISA. In general terms: In an ELISA, binding on a coated surface is turned into a signal by an enzyme label.

Experiment [2] deals with T1, recombinant human soluble gpNMB …. Put plainly: antigen ELISA, vs hGPN18-2_H2L3.

B1: hGPN18-2_H2L3 VL E39A (antibody, V domains shown)
VH: QVQLVQSGPGLVQPTQTLTLTCSFSGFSLSTSVMGVGWIRQPSGKGLEWLADIWWDDDKDYNPSLKSRLTISKDTSKNQVVLTMTNMDTVDTATYYCARTYYSNYEYYGMDYWGQGTLVTVSS
VL: DIVMTQSPDSLAVSLGERATINCRSSQTIILSNGNTYLAWYQQKPGQPPKLLIYKVSNRFSGVPDRFSGSGSGTDFTLTISSLQAEDVAVYYCFQGSHVPFTFGSGTKLEIKR
As for B1, the EC50 (usually the concentration needed to bring the measured effect to its halfway point) in experiment [1] is 84.8 nM. Besides, the Relative binding activity in experiment [2] turned out to be 0.1.

B2: hGPN18-2_H2L3 VL I30A (antibody, V domains shown)
VH: QVQLVQSGPGLVQPTQTLTLTCSFSGFSLSTSVMGVGWIRQPSGKGLEWLADIWWDDDKDYNPSLKSRLTISKDTSKNQVVLTMTNMDTVDTATYYCARTYYSNYEYYGMDYWGQGTLVTVSS
VL: DIVMTQSPDSLAVSLGERATINCRSSQTIALSNGNTYLEWYQQKPGQPPKLLIYKVSNRFSGVPDRFSGSGSGTDFTLTISSLQAEDVAVYYCFQGSHVPFTFGSGTKLEIKR
B2: the EC50 in experiment [1] is 4.1 nM. For the same molecule, the Relative binding activity in experiment [2] is 1.

B3: hGPN18-2_H2L3 VL N35A (antibody, V domains shown)
VH: QVQLVQSGPGLVQPTQTLTLTCSFSGFSLSTSVMGVGWIRQPSGKGLEWLADIWWDDDKDYNPSLKSRLTISKDTSKNQVVLTMTNMDTVDTATYYCARTYYSNYEYYGMDYWGQGTLVTVSS
VL: DIVMTQSPDSLAVSLGERATINCRSSQTIILSNGATYLEWYQQKPGQPPKLLIYKVSNRFSGVPDRFSGSGSGTDFTLTISSLQAEDVAVYYCFQGSHVPFTFGSGTKLEIKR
On to B3, for which, in experiment [1], the EC50 was 3.08 nM. For the same molecule, the Relative binding activity in experiment [2] worked out at 1.11.

B4: hGPN18-2_H2L3 VL F101A (antibody, V domains shown)
VH: QVQLVQSGPGLVQPTQTLTLTCSFSGFSLSTSVMGVGWIRQPSGKGLEWLADIWWDDDKDYNPSLKSRLTISKDTSKNQVVLTMTNMDTVDTATYYCARTYYSNYEYYGMDYWGQGTLVTVSS
VL: DIVMTQSPDSLAVSLGERATINCRSSQTIILSNGNTYLEWYQQKPGQPPKLLIYKVSNRFSGVPDRFSGSGSGTDFTLTISSLQAEDVAVYYCFQGSHVPATFGSGTKLEIKR
In the case of B4, the EC50 in experiment [1] came out at 7.66 nM. Also, in experiment [2], the Relative binding activity is 0.69.

B5: hGPN18-2_H2L3 VL Q27A (antibody, V domains shown)
VH: QVQLVQSGPGLVQPTQTLTLTCSFSGFSLSTSVMGVGWIRQPSGKGLEWLADIWWDDDKDYNPSLKSRLTISKDTSKNQVVLTMTNMDTVDTATYYCARTYYSNYEYYGMDYWGQGTLVTVSS
VL: DIVMTQSPDSLAVSLGERATINCRSSATIILSNGNTYLEWYQQKPGQPPKLLIYKVSNRFSGVPDRFSGSGSGTDFTLTISSLQAEDVAVYYCFQGSHVPFTFGSGTKLEIKR
For B5, the EC50 in experiment [1] amounted to 4 nM. Moreover, in experiment [2], the Relative binding activity was determined as 1.04.

B6: hGPN18-2_H2L3 VL G96A (antibody, V domains shown)
VH: QVQLVQSGPGLVQPTQTLTLTCSFSGFSLSTSVMGVGWIRQPSGKGLEWLADIWWDDDKDYNPSLKSRLTISKDTSKNQVVLTMTNMDTVDTATYYCARTYYSNYEYYGMDYWGQGTLVTVSS
VL: DIVMTQSPDSLAVSLGERATINCRSSQTIILSNGNTYLEWYQQKPGQPPKLLIYKVSNRFSGVPDRFSGSGSGTDFTLTISSLQAEDVAVYYCFQASHVPFTFGSGTKLEIKR
With B6, in experiment [1], the EC50 turned out to be 10.8 nM. Further, the Relative binding activity in experiment [2] was found to be 0.91.

B7: hGPN18-2_H2L3 VL K55A (antibody, V domains shown)
VH: QVQLVQSGPGLVQPTQTLTLTCSFSGFSLSTSVMGVGWIRQPSGKGLEWLADIWWDDDKDYNPSLKSRLTISKDTSKNQVVLTMTNMDTVDTATYYCARTYYSNYEYYGMDYWGQGTLVTVSS
VL: DIVMTQSPDSLAVSLGERATINCRSSQTIILSNGNTYLEWYQQKPGQPPKLLIYAVSNRFSGVPDRFSGSGSGTDFTLTISSLQAEDVAVYYCFQGSHVPFTFGSGTKLEIKR
In the case of B7, in experiment [1], the EC50 is 48.3 nM. For the same molecule, the Relative binding activity in experiment [2] is 0.31.

B8: hGPN18-2_H2L3 VL G34A (antibody, V domains shown)
VH: QVQLVQSGPGLVQPTQTLTLTCSFSGFSLSTSVMGVGWIRQPSGKGLEWLADIWWDDDKDYNPSLKSRLTISKDTSKNQVVLTMTNMDTVDTATYYCARTYYSNYEYYGMDYWGQGTLVTVSS
VL: DIVMTQSPDSLAVSLGERATINCRSSQTIILSNANTYLEWYQQKPGQPPKLLIYKVSNRFSGVPDRFSGSGSGTDFTLTISSLQAEDVAVYYCFQGSHVPFTFGSGTKLEIKR
For the molecule B8, the EC50 in experiment [1] is 3.94 nM. Also, in experiment [2], the Relative binding activity was 1.

B9: hGPN18-2_H2L3 VL H98A (antibody, V domains shown)
VH: QVQLVQSGPGLVQPTQTLTLTCSFSGFSLSTSVMGVGWIRQPSGKGLEWLADIWWDDDKDYNPSLKSRLTISKDTSKNQVVLTMTNMDTVDTATYYCARTYYSNYEYYGMDYWGQGTLVTVSS
VL: DIVMTQSPDSLAVSLGERATINCRSSQTIILSNGNTYLEWYQQKPGQPPKLLIYKVSNRFSGVPDRFSGSGSGTDFTLTISSLQAEDVAVYYCFQGSAVPFTFGSGTKLEIKR
In the case of B9, the EC50 in experiment [1] is 5.69 nM. For the same molecule, the Relative binding activity in experiment [2] is 0.8.

B10: hGPN18-2_H2L3 VL N33A (antibody, V domains shown)
VH: QVQLVQSGPGLVQPTQTLTLTCSFSGFSLSTSVMGVGWIRQPSGKGLEWLADIWWDDDKDYNPSLKSRLTISKDTSKNQVVLTMTNMDTVDTATYYCARTYYSNYEYYGMDYWGQGTLVTVSS
VL: DIVMTQSPDSLAVSLGERATINCRSSQTIILSAGNTYLEWYQQKPGQPPKLLIYKVSNRFSGVPDRFSGSGSGTDFTLTISSLQAEDVAVYYCFQGSHVPFTFGSGTKLEIKR
As to B10, the EC50 in experiment [1] amounted to 3.66 nM. Moreover, the Relative binding activity in experiment [2] is 0.82.

B11: hGPN18-2_H2L3 VL I29A (antibody, V domains shown)
VH: QVQLVQSGPGLVQPTQTLTLTCSFSGFSLSTSVMGVGWIRQPSGKGLEWLADIWWDDDKDYNPSLKSRLTISKDTSKNQVVLTMTNMDTVDTATYYCARTYYSNYEYYGMDYWGQGTLVTVSS
VL: DIVMTQSPDSLAVSLGERATINCRSSQTAILSNGNTYLEWYQQKPGQPPKLLIYKVSNRFSGVPDRFSGSGSGTDFTLTISSLQAEDVAVYYCFQGSHVPFTFGSGTKLEIKR
Turning to B11, in experiment [1], the EC50 amounted to 6.04 nM. Also, the Relative binding activity in experiment [2] came to 0.75.

B12: hGPN18-2_H2L3 VL L38A (antibody, V domains shown)
VH: QVQLVQSGPGLVQPTQTLTLTCSFSGFSLSTSVMGVGWIRQPSGKGLEWLADIWWDDDKDYNPSLKSRLTISKDTSKNQVVLTMTNMDTVDTATYYCARTYYSNYEYYGMDYWGQGTLVTVSS
VL: DIVMTQSPDSLAVSLGERATINCRSSQTIILSNGNTYAEWYQQKPGQPPKLLIYKVSNRFSGVPDRFSGSGSGTDFTLTISSLQAEDVAVYYCFQGSHVPFTFGSGTKLEIKR
On to B12, for which, in experiment [1], the EC50 is 4.15 nM. The Relative binding activity in experiment [2] turned out to be 1.06.

B13: hGPN18-2_H2L3 VL L31A (antibody, V domains shown)
VH: QVQLVQSGPGLVQPTQTLTLTCSFSGFSLSTSVMGVGWIRQPSGKGLEWLADIWWDDDKDYNPSLKSRLTISKDTSKNQVVLTMTNMDTVDTATYYCARTYYSNYEYYGMDYWGQGTLVTVSS
VL: DIVMTQSPDSLAVSLGERATINCRSSQTIIASNGNTYLEWYQQKPGQPPKLLIYKVSNRFSGVPDRFSGSGSGTDFTLTISSLQAEDVAVYYCFQGSHVPFTFGSGTKLEIKR
Turning to B13, the EC50 in experiment [1] was found to be 20.7 nM. Moreover, in experiment [2], the Relative binding activity is 0.41.

B14: hGPN18-2_H2L3 VL F94A (antibody, V domains shown)
VH: QVQLVQSGPGLVQPTQTLTLTCSFSGFSLSTSVMGVGWIRQPSGKGLEWLADIWWDDDKDYNPSLKSRLTISKDTSKNQVVLTMTNMDTVDTATYYCARTYYSNYEYYGMDYWGQGTLVTVSS
VL: DIVMTQSPDSLAVSLGERATINCRSSQTIILSNGNTYLEWYQQKPGQPPKLLIYKVSNRFSGVPDRFSGSGSGTDFTLTISSLQAEDVAVYYCAQGSHVPFTFGSGTKLEIKR
On to B14, for which the EC50 in experiment [1] came out at 18 nM. Further, the Relative binding activity in experiment [2] came to 0.07.

B15: hGPN18-2_H2L3 VL P100A (antibody, V domains shown)
VH: QVQLVQSGPGLVQPTQTLTLTCSFSGFSLSTSVMGVGWIRQPSGKGLEWLADIWWDDDKDYNPSLKSRLTISKDTSKNQVVLTMTNMDTVDTATYYCARTYYSNYEYYGMDYWGQGTLVTVSS
VL: DIVMTQSPDSLAVSLGERATINCRSSQTIILSNGNTYLEWYQQKPGQPPKLLIYKVSNRFSGVPDRFSGSGSGTDFTLTISSLQAEDVAVYYCFQGSHVAFTFGSGTKLEIKR
Consider B15, for which, in experiment [1], the EC50 came to 4.22 nM. In experiment [2], the Relative binding activity amounted to 0.84.

B16: hGPN18-2_H2L3 VL N58A (antibody, V domains shown)
VH: QVQLVQSGPGLVQPTQTLTLTCSFSGFSLSTSVMGVGWIRQPSGKGLEWLADIWWDDDKDYNPSLKSRLTISKDTSKNQVVLTMTNMDTVDTATYYCARTYYSNYEYYGMDYWGQGTLVTVSS
VL: DIVMTQSPDSLAVSLGERATINCRSSQTIILSNGNTYLEWYQQKPGQPPKLLIYKVSARFSGVPDRFSGSGSGTDFTLTISSLQAEDVAVYYCFQGSHVPFTFGSGTKLEIKR
With B16, the concentration for a half-maximal effect (EC50) in experiment [1] was determined as 2.86 nM. Moreover, the Relative binding activity in experiment [2] was 1.04.

B17: hGPN18-2_H2L3 VL F60A (antibody, V domains shown)
VH: QVQLVQSGPGLVQPTQTLTLTCSFSGFSLSTSVMGVGWIRQPSGKGLEWLADIWWDDDKDYNPSLKSRLTISKDTSKNQVVLTMTNMDTVDTATYYCARTYYSNYEYYGMDYWGQGTLVTVSS
VL: DIVMTQSPDSLAVSLGERATINCRSSQTIILSNGNTYLEWYQQKPGQPPKLLIYKVSNRASGVPDRFSGSGSGTDFTLTISSLQAEDVAVYYCFQGSHVPFTFGSGTKLEIKR
For the molecule B17, the half-maximal effective concentration (EC50) in experiment [1] was found to be 2.28 nM. In experiment [2], the Relative binding activity came out at 1.12.
